Laboratory results: patent US20260015399A1 (Boehringer Ingelheim, published 2026)
Each block holds one binder with its values, some of them ahead of it. *1 amine or outer side, *2 acyl side, *3 side chain or, on linkers, in order; H or OH if unused. Side-chain parts run from the residue outwards. The star is where a group is joined. C18 diacid = O=C(O)CCCCCCCCCCCCCCCCC(=O)*; γGlu = O=C(O)[C@H](CCC(=O)[*:2])N[*:1]; Isovaleryl = CC(C)CC(=O)*; Ahx = NCCCCCC(=O)O

Target: T1, human NPY2 receptor (human, UniProt P49146 1-381)
T1 construct: whole, on cells; also called hNPY2-R; hNPY2R
T1 sequence (looked up): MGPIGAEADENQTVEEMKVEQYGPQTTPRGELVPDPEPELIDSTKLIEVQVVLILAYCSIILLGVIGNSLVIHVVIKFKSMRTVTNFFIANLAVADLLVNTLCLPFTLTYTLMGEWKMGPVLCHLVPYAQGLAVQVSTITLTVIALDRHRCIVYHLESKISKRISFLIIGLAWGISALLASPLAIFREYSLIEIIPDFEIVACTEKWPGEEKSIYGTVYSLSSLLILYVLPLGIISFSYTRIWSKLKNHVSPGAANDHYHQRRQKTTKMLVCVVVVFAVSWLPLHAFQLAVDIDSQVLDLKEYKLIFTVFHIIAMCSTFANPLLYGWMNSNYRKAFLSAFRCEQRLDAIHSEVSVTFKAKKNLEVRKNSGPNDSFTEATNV
Assay: RLB: displacement of 125I-PYY(1-36) from hNPY2R membranes

- Ki: 12.4 nM
B1: Compound 38 (peptide)
peptide: Isovaleryl-APEK([Ahx-γGlu-C18 diacid])PEEDATPEELQEYYVSLRHYYNWLTRQRY-NH2
SMILES: CC(C)CC(=O)N[C@@H](C)C(=O)N1CCC[C@H]1C(=O)N[C@@H](CCC(=O)O)C(=O)N[C@@H](CCCCNC(=O)CCCCCNC(=O)CC[C@H](NC(=O)CCCCCCCCCCCCCCCCC(=O)O)C(=O)O)C(=O)N1CCC[C@H]1C(=O)N[C@@H](CCC(=O)O)C(=O)N[C@@H](CCC(=O)O)C(=O)N[C@@H](CC(=O)O)C(=O)N[C@@H](C)C(=O)N[C@H](C(=O)N1CCC[C@H]1C(=O)N[C@@H](CCC(=O)O)C(=O)N[C@@H](CCC(=O)O)C(=O)N[C@@H](CC(C)C)C(=O)N[C@@H](CCC(N)=O)C(=O)N[C@@H](CCC(=O)O)C(=O)N[C@@H](Cc1ccc(O)cc1)C(=O)N[C@@H](Cc1ccc(O)cc1)C(=O)N[C@H](C(=O)N[C@@H](CO)C(=O)N[C@@H](CC(C)C)C(=O)N[C@@H](CCCNC(=N)N)C(=O)N[C@@H](Cc1c[nH]cn1)C(=O)N[C@@H](Cc1ccc(O)cc1)C(=O)N[C@@H](Cc1ccc(O)cc1)C(=O)N[C@@H](CC(N)=O)C(=O)N[C@@H](Cc1c[nH]c2ccccc12)C(=O)N[C@@H](CC(C)C)C(=O)N[C@H](C(=O)N[C@@H](CCCNC(=N)N)C(=O)N[C@@H](CCC(N)=O)C(=O)N[C@@H](CCCNC(=N)N)C(=O)N[C@@H](Cc1ccc(O)cc1)C(N)=O)[C@@H](C)O)C(C)C)[C@@H](C)O

- Ki: 2.73 nM
B2: Compound 39 (peptide)
peptide: Isovaleryl-APEK([Ahx-γGlu-C18 diacid])PEEDASPEALQEYYVSLRHYYNWLTRQRY-NH2
SMILES: CC(C)CC(=O)N[C@@H](C)C(=O)N1CCC[C@H]1C(=O)N[C@@H](CCC(=O)O)C(=O)N[C@@H](CCCCNC(=O)CCCCCNC(=O)CC[C@H](NC(=O)CCCCCCCCCCCCCCCCC(=O)O)C(=O)O)C(=O)N1CCC[C@H]1C(=O)N[C@@H](CCC(=O)O)C(=O)N[C@@H](CCC(=O)O)C(=O)N[C@@H](CC(=O)O)C(=O)N[C@@H](C)C(=O)N[C@@H](CO)C(=O)N1CCC[C@H]1C(=O)N[C@@H](CCC(=O)O)C(=O)N[C@@H](C)C(=O)N[C@@H](CC(C)C)C(=O)N[C@@H](CCC(N)=O)C(=O)N[C@@H](CCC(=O)O)C(=O)N[C@@H](Cc1ccc(O)cc1)C(=O)N[C@@H](Cc1ccc(O)cc1)C(=O)N[C@H](C(=O)N[C@@H](CO)C(=O)N[C@@H](CC(C)C)C(=O)N[C@@H](CCCNC(=N)N)C(=O)N[C@@H](Cc1c[nH]cn1)C(=O)N[C@@H](Cc1ccc(O)cc1)C(=O)N[C@@H](Cc1ccc(O)cc1)C(=O)N[C@@H](CC(N)=O)C(=O)N[C@@H](Cc1c[nH]c2ccccc12)C(=O)N[C@@H](CC(C)C)C(=O)N[C@H](C(=O)N[C@@H](CCCNC(=N)N)C(=O)N[C@@H](CCC(N)=O)C(=O)N[C@@H](CCCNC(=N)N)C(=O)N[C@@H](Cc1ccc(O)cc1)C(N)=O)[C@@H](C)O)C(C)C
